Data published in paper PMC4945142 (Molecular Biology of the Cell, 2016).
“And” between values parts separate entries of the source, which are not always exact repeats. Identical values can stand only once.

Tests used:
[1] = target: E. coli-expressed GST-Spc110p^1-220 (budding yeast) (UniProt P32380); assay: SEC-MALS
[2] = target: γ-tubulin small complex (γTuSC) with γ-tubulin^S48C/S153C, Spc97-YFP and Spc98-CFP (budding yeast) (UniProt P53378); assay: FRET or BRET
[3] = target: the molecule itself; assay: SEC-MALS

Question: “E. coli-expressed GST-Spc110p^1-220 (from UniProt P32380 1-220) (domain or fragment)” was tested. Which stoichiometry N [1] did it give?
Answer: Its stoichiometry N is 2 and 4.

Question: How did the Kd [2] turn out when “Spc110p^1-220 tetramer (Spc110p^1-220 fused with the tetramer-forming mutant coiled-coil domain of GCN4, GCN4-LI) (from UniProt P32380 1-220)” was run?
Answer: Its Kd is 4 nM.

Question: And the Kd2 (Spc110p tetramer with a single γTuSC) [2]?
Answer: The Kd2 (Spc110p tetramer with a single γTuSC) was 43 nM.

Question: What about the Kd3 (a second γTuSC binding to the complex of Spc110p tetramer and one γTuSC) [2] of the same molecule?
Answer: The Kd3 (a second γTuSC binding to the complex of Spc110p tetramer and one γTuSC) was 3 nM.

B1: Untagged Spc110p^1-220 (domain or fragment, budding yeast, UniProt P32380 1-220, looked up)
chain: MDEASHLPNGSLKNMEFTPVGFIKSKRNTTQTQVVSPTKVPNANNGDENEGPVKKRQRRSIDDTIDSTRLFSEASQFDDSFPEIKANIPPSPRSGNVDKSRKRNLIDDLKKDVPMSQPLKEQEVREHQMKKERFDRALESKLLGKRHITYANSDISNKELYINEIKSLKHEIKELRKEKNDTLNNYDTLEEETDDLKNRLQALEKELDAKNKIVNSRKVD
Question: For B1, which “stoichiometry N” value [3] is on record?
Answer: The value was 2.
